According to paper PMC10907699, “The IRE1β-mediated unfolded protein response is repressed by the chaperone AGR2 in mucin producing cells” (The EMBO Journal, 2023):
Each block holds one molecule with its values, some of them ahead of it.

B1: MBP-hIRE1b_LD_(35-428)-AviTag-His7 (domain or fragment, human, UniProt Q76MJ5 35-428, looked up)
chain: LRPENLLLVSTLDGSLHALSKQTGDLKWTLRDDPVIEGPMYVTEMAFLSDPADGSLYILGTQKQQGLMKLPFTIPELVHASPCRSSDGVFYTGRKQDAWFVVDPESGETQMTLTTEGPSTPRLYIGRTQYTVTMHDPRAPALRWNTTYRRYSAPPMDGSPGKYMSHLASCGMGLLLTVDPGSGTVLWTQDLGVPVMGVYTWHQDGLRQLPHLTLARDTLHFLALRWGHIRLPASGPRDTATLFSTLDTQLLMTLYVGKDETGFYVSKALVHTGVALVPRGLTLAPADGPTTDEVTLQVSGEREGSPSTAVRYPSGSVALPSQWLLIGHHELPPVLHTTMLRVHPTLGSGTAETRPPENTQAPAFFLELLSLSREKLWDSELHPEEKTPDSYLGL
modifications: biotin on the AviTag (endogenous biotinylation of a fraction of the protein in E. coli)
notes: IRE1β (ERN2) luminal domain, human, residues 35-428; No step that cleaves MBP is described; also called IRE1β LD; IRE1β LD probe; source: T7 Express lysY/Iq E. coli, purified (Ni-NTA, amylose resin, two gel filtrations); not shown: AviTag, C-terminal, kept

Tests used:
[1] = molecular target: MBP-hIRE1β LD ∆C-mGL-AviTag-His (human) (UniProt Q76MJ5); test: mass photometry (ISCAT); IRE1β LD wt or ∆C alone at the indicated concentrations; HK buffer, room temperature (~21 °C)
AGR2 (Homo sapiens) = AGR2 (Homo sapiens) (UniProt O95994); conditions: cited from earlier work
[2] = molecular target: T1, MBP-hIRE1bLD (35-428)-NanoLuc-H6 (human, UniProt Q76MJ5 35-428); test: FRET or BRET; kinetic readings: AGR2 variants or unlabelled IRE1β LD competitor added to the pre-formed IRE1β LD-nanoluc / IRE1β LD-mGL BRET pair; BRET ratio every 20 s, one-phase exponential decay; conditions: both partners purified
T1 construct: IRE1β (ERN2) luminal domain, human, residues 35-428; No step that cleaves MBP is described; also called IRE1β-nluc donor; IRE1β LD-nanoluc; source: T7 Express lysY/Iq E. coli, purified (Ni-NTA, amylose resin, two gel filtrations); not shown: NanoLuc (complete, WT), C-terminal, kept
T1 sequence (looked up): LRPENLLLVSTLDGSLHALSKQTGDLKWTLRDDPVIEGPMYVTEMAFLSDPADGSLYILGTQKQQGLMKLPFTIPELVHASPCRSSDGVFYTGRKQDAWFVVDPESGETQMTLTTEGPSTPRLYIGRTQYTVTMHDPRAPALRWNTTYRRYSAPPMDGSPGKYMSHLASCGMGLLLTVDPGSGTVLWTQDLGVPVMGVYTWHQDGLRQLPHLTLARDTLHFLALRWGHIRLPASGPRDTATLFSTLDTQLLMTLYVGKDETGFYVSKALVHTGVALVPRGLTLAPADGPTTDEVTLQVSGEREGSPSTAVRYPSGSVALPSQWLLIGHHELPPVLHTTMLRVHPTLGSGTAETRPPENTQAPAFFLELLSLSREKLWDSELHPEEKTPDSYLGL

mouse AGR2 (21-175) C81S = molecular target: T2, mouse AGR2 (21-175) C81S (mouse, UniProt O88312 21-175, C81S); test: BLI; K1/2 max from steady-state one-site fit
T2 sequence: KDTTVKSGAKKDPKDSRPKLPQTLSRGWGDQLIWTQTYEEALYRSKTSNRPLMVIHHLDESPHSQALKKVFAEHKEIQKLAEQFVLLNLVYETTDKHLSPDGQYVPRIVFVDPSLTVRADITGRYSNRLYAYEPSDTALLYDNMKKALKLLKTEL

mouse AGR2 (21-175) C81E = molecular target: T3, mouse AGR2 (21-175) C81E (mouse, UniProt O88312 21-175, C81E); test: BLI; K1/2 max from steady-state one-site fit
T3 sequence: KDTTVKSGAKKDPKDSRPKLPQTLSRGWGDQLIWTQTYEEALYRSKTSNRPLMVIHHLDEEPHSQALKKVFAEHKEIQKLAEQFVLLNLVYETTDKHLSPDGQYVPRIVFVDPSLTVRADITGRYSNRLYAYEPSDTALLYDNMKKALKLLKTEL

[3] = molecular target: the molecule itself; test: mass photometry (ISCAT); IRE1β LD wt or ∆C alone at the indicated concentrations; HK buffer, room temperature (~21 °C)
[4] = molecular target: B1; test: BLI; biotinylated IRE1 LD loaded on streptavidin sensors, exposed sequentially to increasing concentrations of AGR2; 30 °C; HK buffer (50 mM HEPES-KOH pH 7.4, 150 mM KCl) with 0.05% Triton X-100 and 1 mM TCEP; signal against AGR2 concentration fitted to a one-site specific binding function (the methods call the result a KD of binding); conditions: both partners purified

stoichiometry N [1]: 2
Molecule: MBP-hIRE1β LD ∆C-mGL-AviTag-His (from UniProt Q76MJ5 35-428) (domain or fragment)

Molecule: AGR2 (from UniProt O95994)
Kd (AGR2 (Homo sapiens)): 8 µM

Molecule: B1
binding result [2]: binds
Kd (mouse AGR2 (21-175) C81S): 124 µM
Kd (mouse AGR2 (21-175) C81E): 78.5 µM

B2: MBP-hIRE1β LD-mGL-AviTag-His (domain or fragment, human, UniProt Q76MJ5 35-428, looked up)
chain: LRPENLLLVSTLDGSLHALSKQTGDLKWTLRDDPVIEGPMYVTEMAFLSDPADGSLYILGTQKQQGLMKLPFTIPELVHASPCRSSDGVFYTGRKQDAWFVVDPESGETQMTLTTEGPSTPRLYIGRTQYTVTMHDPRAPALRWNTTYRRYSAPPMDGSPGKYMSHLASCGMGLLLTVDPGSGTVLWTQDLGVPVMGVYTWHQDGLRQLPHLTLARDTLHFLALRWGHIRLPASGPRDTATLFSTLDTQLLMTLYVGKDETGFYVSKALVHTGVALVPRGLTLAPADGPTTDEVTLQVSGEREGSPSTAVRYPSGSVALPSQWLLIGHHELPPVLHTTMLRVHPTLGSGTAETRPPENTQAPAFFLELLSLSREKLWDSELHPEEKTPDSYLGL
notes: IRE1β (ERN2) luminal domain, human; C-terminal mGL inserted in the MBP-hIRE1bLD of UK2796 (residues 35-428); also called GFP-tagged IRE1β LD; IRE1β LD-mGL acceptor; source: T7 Express lysY/Iq E. coli, purified (Ni-NTA, amylose resin, two gel filtrations); not shown: MBP, N-terminal, kept; mGL (monomeric Green Lantern), C-terminal, kept
stoichiometry N [3]: 2

B3: mouse AGR2 (21-175) C81E (natural protein, UniProt O88312 21-175, looked up)
chain: KDTTVKSGAKKDPKDSRPKLPQTLSRGWGDQLIWTQTYEEALYRSKTSNRPLMVIHHLDEEPHSQALKKVFAEHKEIQKLAEQFVLLNLVYETTDKHLSPDGQYVPRIVFVDPSLTVRADITGRYSNRLYAYEPSDTALLYDNMKKALKLLKTEL
notes: AGR2, mouse, residues 21-175, active site mutant C81E; also called AGR2 C81E; UK2835; source: T7 Express lysY/Iq E. coli, purified (Ni-NTA, SENP2 cleavage, reverse Ni-NTA); not shown: His6, N-terminal, cleaved; SUMO3, N-terminal, cleaved
binding result [4]: binds

B4: mouse AGR2 (21-175) C81S (natural protein, UniProt O88312 21-175, looked up)
chain: KDTTVKSGAKKDPKDSRPKLPQTLSRGWGDQLIWTQTYEEALYRSKTSNRPLMVIHHLDESPHSQALKKVFAEHKEIQKLAEQFVLLNLVYETTDKHLSPDGQYVPRIVFVDPSLTVRADITGRYSNRLYAYEPSDTALLYDNMKKALKLLKTEL
notes: AGR2, mouse, residues 21-175, active site mutant C81S; also called AGR2 C81S; UK2795; source: T7 Express lysY/Iq E. coli, purified (Ni-NTA, SENP2 cleavage, reverse Ni-NTA); not shown: His6, N-terminal, cleaved; SUMO3, N-terminal, cleaved
binding result [4]: binds
